Assay results from a protein production outcome set (Wang et al. 2014).

Assay: label from the status in PepcDB records
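Note: failed if final PepcDB status was selected cloned or expressed and not failed if soluble or beyond.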

| Sequence | protein production |
| --- | --- |
| ETQPESAAFTAPSTDNPIRINFNENPLGMSPKAQAAARDAVVKANRYAKNEILMLGNKLAAHHQVEAPSILLTAGSSEGIRAAIEAYASLEAQLVIPELTYGDGEHFAKIAGMKVTKVKMLDNWAFDIEGLKAAVAAYSGPSIVYLVNPNNPTGTITPADVIEPWIASKPANTMFIVDEAYAEFVNDPRFRSISPMITQGAENIILLKTFSKIHAMAGMRVGYAVAHPTVIALMGRYVAGEKINFSGVDAALASMNDSAFITYSKKSNDVSRQILLKALEDLKLPYLPSEGNFVFHQLVVPLKDYQTHMADAGVLIGRAFPPADNWCRISLGTPQEMQWVADTMREFRKKSWI | not failed |
| EVPIGFDTDELSFDMSLVLLTGDMQTKASDPNYTYATTEELTIQNCHVAVFDKDGKRIYFKNFYSKDLGEMKTIGNLSGYELQLEGVRTFGKEDKKVSVLVVANANNANNSPFDNLTTYDGVDNSYTAKTIAKGPVTASLLVKIGKSETTLKYNQDNAPVTVSLIQLSAKIEYTGVYKKENGELLEGFSLTKVAGLNASSKITIFNTSAVENGAFSDLAYPTTKPVTFYTYEISDAFKEVILSVQSGVEPKEYPFPANKFIKGNYYRIKGLKSSTEIEWVLENVEDKEVTLDPFE | not failed |
| EVSYAKERVRLITASGRTHDLTVELAVDPSQREQGLMYRRQMAPDHGMLFDFGETRPVMMWMKNTYLPLDMLFIASDGTIRTIHENAVPHSEAIIDSREPVAYVLELNAGTVKRLGVSPGDRLEGAGLPATKRAN | not failed |
| FDFKAGEEVLARWTDCRYYPAKIEAINKEGTFTVQFYDGVIRCLKRMHIKAMPEDAKGQDWIALVKA | not failed |
| FDQAPVLVVGDVMLDRYWHGGTSRISPEAPVPVVKVDQIEDRPGGAANVALNIAALGAPASLVGVTGDDEAAESLTNSLKAAGVVARFQRIADQPTIVKLRVMSRHQQLLRIDFEEPFNTDPLALSAEVYSLLDGIKVLVLSDYGKGALKNHQALIQAARKRGIPVLADPKGKDFAIYRGASLITPNLSEFEAIVGHCEDEAQLVTKGAQLMQELDLGALLVTRGEHGMTLLRPDQQALHLPARAREVFDVTGAGDTVISTLAAAIAAGEELPHAVALANLAAGIVVGKLGTAAISAPELRRAIQR | failed |
| FEDFNTNPYQPSKVPASNLLSTMFNVYACPQQNACQEINCMWASFSGQVTATANWSFGKNIFAYYNASEGHNDSSWGRLYGYIYPSFFLVENSTEKKGVIYAMAQLTRVYGMQLLASLQGPIPYTQMKAGETEAPYDNEQTVWHAMFDDLDNAITILKSAATFGVNQDLAVVDQFYKGDCSKWLKFANTLKLRMAIRISGVEPEYAQTKAQEAVLGGVMESVGDSSYDTTNGGINENGYAIVSGWPEVRANACLVSYMNGYNDPRRPAYFTPQTQTAAGGYVGVRSGSAEIPEPTVYANYSKLFIATDKTLPQPVMYAAEAAFLRAEGALKGWNMGGDAKTFYEKGVRLSFEEFGVSGADDYLADATSIPGNYVDNLIAGHTGNNYTNQSSITIKWEDGADDAKKLERVLTQKWIACYPDPMNGWADFRRTGYPRIFPATESMNADCNTGRGQRRLRFTRSEYNNNKANVEAAVSMLSNGKDSNGTDLWWAMKENGTY | not failed |
| FFKGAASSVLELTEAELVTAEAVRSVWQRILPKVLEVEDSTDFFKSGAASVDVVRLVEEVKELCDGLELENEDVYMASTFGDFIQLLVRKLRGDDEE | not failed |
| FIQIKPGYDYPIISALRAIISGNADAVPDEVGGVSKEKLVELAETMKNAKYGAVLYGLGVTQSRGRDRNVENAVKLIQLLNRHTRWVIWPMRGHYNVVGAGEVPAWEVGYQYAIDFSRGYPR | failed |
| FLNSVLNFSLFLLNAHDSYLEVMRNRDTLSRMISSLEEVLDVSRRAELIEKTLHYLKDMFPGIVLSSVSLLEDGKIKTFFLKNGQIEVVNLKRGIVVKAFETKRDLFVNDVRDFPEFYDVTNGRTRSAAAIFFEYENTPLVLEIEKDSEITEYELSSLKMMARILAIFFSR | failed |
| FQQTQDWVFIIDEKISRITANQSMRAVFDWPEEEFDFSDKLLGVSQKRRSFYRKLMLSLKEGEHWRGEELIVTANKDEYHVIINVTVGFSSVTNALHYLFVLTDIS | failed |
| FRPHFLQAPGDLTVQEGKLCRMDCKVSGLPTPDLSWQLDGKPVRPDSAHKMLVRENGVHSLIIEPVTSRDAGIYTCIATNRAGQNSFSLELVVAAKE | not failed |
| FSKTQRWAEPGEPICVVCGRYGEYICDKTDEDVCSLECKAKHLLQVKEKEEKS | not failed |
| FTDITERYQHAEALSESERWIRLITDHVPALIAYLNADLVYEFTNKVYEEWYCWPRGVMLGQSLREVHSEQHYQRLESYVERALAGESVTFEFAETNINNQERYMLRSYVPNRLANGEVVGIFVLIRDITERRRTAEALHQAYQNLELRV | failed |
| FVNTFIQFKKPIIVAVNGPAIGLGASILPLCDVVWANEKAWFQTPYTTFGQSPDGCSTVMFPKIMGGASANEMLLSGRKLTAQEACGKGLVSQVFWPGTFTQEVMVRIKELASCNPVVLEESKALVRCNMKMELEQANERECEVLKKIWGSAQGMDSMLKYLQRKIDEF | failed |
| GAFDAAQLDVAQAYARHLAVSLQQSLLRQRVARLGRVYEVLSRINALVARCHEREELFDGICRVTVEVGTYRMAWVGVIDPETLNGTVVAFRGEDSDYLRQIRLSAKEDSPYRDRPACKAVRQKEIVVCNDVQEDASLKGLAPHLISYGVRSVACLPVMLDGRAFAVLALFAGDVGAFDRQEMGLLRELASDIGFALDHIQKEERLDYLAYYDS | failed |
| GDAPPEIHAIYTDITERTRLEETLTYRSELESKIVDISTRFINTPIDDLDREIEAALQAIGAFVDADRSYVFLFDDEAATMSNTHEWRTEATASTQSRLQNIPYAETPWFMARMRRREGPLRVPRLEDLPPDAAGLRQRLEAGNVQSLLVLPMLNDQDLIGFVGFDAVRQQRDWDADTVMLLRVLSDAISNALQRKTAEKEMLAAKEEAEDANRMKSVFLANMSHEIRTP | not failed |
| GEGIQPSKKLITRDYKVKEFNKIDAGTVGNIYYTQSTDGKTDLQIYGPDNIVALIQVAVKDNTLFLSIDKSKKVRNFKKMKITITSPTLNGISFKGVGDVHIENGLTTDNLDIESKGVGNVDIQSLTCQKLNVQSMGVGDVKLEGTAQIAALHSKGVGNIEAGNLRANAVEASSQGVGDITCNATESIDAAVRGVGSIKYKGSPTIKSLSKKGVGTIKNI | not failed |
| GEIIEGCRLPVLRRNQDNEDEWPLAEILSVKDISGRKLFYVHYIDFNRRLDEWVTHERLDLKKIQFPKKEAKTP | not failed |
| GEKLLNAASTRGRLCVGIDPHESLLTSWGLPVNVDGLAEFSRACVEAFADTVALVKPQVAFYERFGSAGFAILEETIQTLRERGCLVVSDAKRGDIGSTMAGYASAWLDPASPLSSDAVTVSPYLGFHSLDPVFELAEQHGRGVFVLAATSNPEARELQDQQNADGVSISQQIVDQAAALNAPYMAQGKAGNIGVVIGATLSKPPRLSTLGGAILMPGVGAQGGTASDVDEIAGDMAHLAFPNVSRSILATGPDIAEMKNSVAKN | failed |
| GGERRELKSLEQVHFAMAFEAPNYRAPDVYAAQVYAMALGGGMSSRLFQKVREERGLCYSIFAQSGAYEDTGQITIYAGTSGEEVADLAGLTVDELKRATEDMSEAEVARARAQLKAGLLMGLESPSNRAERLARLLAIWGRVPGVDEAVEKIDAVTVGAVRDYAERMAQARSALALYGPAEAAPALAQIRERLAA | failed |
| GHMAKAYKQAGVDIEAGYQAVALMKEHVQKTMRPEVLGGIGGFGGLFDLSALGYRQPVLISGTDGVGTKLKLAFLLDRHDTIGIDCVAMCVNDIIVQGAEPLFFLDYIACGKAVPEKIAAIVKGVADGCVEAGCALIGGETAEMPGMYDEDEYDLAGFAVGVAEKERLITGETIQAGDALVGLPSSGLHSNGYSLVRRIVFEQAKLSLDEIYEPLDVPLGEELLKPTRIYAKLLRSVRERFTIKGMAHITGGGLIENIPRMLPPGIGARIQLGSWPILPIFDFLREKGSLEEEEMFSVFNMGIGLVLAVSPETAAPLVEWLSERGEPAYIIGEVAKGAGVSFAGGGRA | not failed |
| GKRSHSMKRNPNAPVTKAGWLFKQASSGVKQWNKRWFVLVDRCLFYYKDEKEESILGSIPLLSFRVAAVQPSDNISRKHTFKAEHAGVRTYFFSAESPEEQEAWIQAMGEAARVQ | not failed |
| GLTNFTRDAEVLYQCAWIHDVMGLETEAMPYYEQAIANGLEGESLCGAYIGLGSTYRCIGEYDKAITVLETGLQQFPGNDVMKVFLSLAKFNVNDHESAMKLLLETVVK | failed |
| GMTGFVINTRRAPFDDWRLREALLLAFNFEFINDTVTGGVMPRITSYFSGTDLAYRPGTASGREAELLAPFAADLPPGTLEGYALPQGDGTARNRTNLRRAAQFLEQAGFRIEQGQLLGPDGAPLALRFLLRQGDSDMQTVLEIYTRALERLGIAAQIEKVDNAQYTARVAELDFDLTPFRRDLSLSPGNEQRLYWGSHSAGQPGTRNLMGAASPAIDAMIDRMLAATTEDELTAATRALDRVLTAGRYVIPIWR | not failed |
| GNNVSDADIRAIKHSERRLRNHFLPQSLFSHCGFEQAFNYKYLRIMRIAVHPQIQQQGIGAQFIHYIELLAKEQGVDFIGASFGVNPELLSFWLNAGFSTARIGFTKDKASGEHSALLIKGL | failed |
| GNSKSRNDRTETVDKEVIKAPEFDADSAYQYIQVQADFGPRVPNTQAHKECGEYLAGQLEKFGAKVYNQYADLIAYDGTILKSRNIIGAYKPESKKRILLCAHWDSRPYADNDPDPKNHHTPILGVNDGASGVGVLLEIARQIQKEQPALGIDIVFFDSEDYGIPEFYDGKYKQDTWCLGSQYWARTPHVQNYNARYGILLDMVGGKDATFYYEGYSARTARSEMKKIWKKAHELGYGKYFVKEDGGETVDDHIYVNKLARIPCVDIINYDAGNPQSSFGSFWHTVNDTMENIDRNTLKAVGQTVMDVIYNEK | not failed |
| GPVPTPPDNIQVQENFNISRIYGKWYNLAIGSTCPWLKKIMDRMTVSTLVLGEGATEAEISMTSTRWRKGVCEETSGAYEKTDTD | failed |
| GQRQPSEQELLFRQQALLLEQQRIHQLRNYQASMEAAGIPVSFGGHRPLSRAQSSPASATFPVSVQEPPTKPRFTTGLVYDTLMLKHQCTCGSSSSHPEHAGRIQSIWSRLQETGLRGKCECIRGRKATLEELQTVHSEAHTLLYGTNPLNRQKLDSKKLLGSLASVFVRLPCGGVGVDSDTIWNEVHSAGAARLAVGCVVELVFKVATGELKNGFAVVRPPGHHAEESTPMGFCYFNSVAVAAKLLQQRLSVSKILIVDWDVHHGNGTQQAFYSDPSVLYMSLHRYDDGNFFPGSGAPDEVGTGPGVGFNVNMAFTGGLDPPMGDAEYLAAFRTVVMPIASEFAPDVVLVSSGFDAVEGHPTPLGGYNLSARCFGYLTKQLMGLAGGRIVLALEGGHDLTAICDASEACVSALLGNELDPLPEKVLQQRPNANAVRSMEKVMEIHSKYWRCLQRTTSTAGRSLIEAQTCENEEAETVTAMASLSVGVKPA | failed |
| GQRVLFGSGEAAQNLAAEISRLDAKNVMVVAGDFELPMARQVAADIDVKVWHSNVVMHVPIETAEEARSVAKENDIDVVVCVGGGSTTGLAKAIAMTTALPIIAVPTTYAGSEATNVWGLTEAARKTTGVDNKVLPVTVIYDSALTMSLP | not failed |
| GQTCARPMCIPPSYADLGKAARDIFNKGFGFGLVKLDVKTKSCSGVEFSTSGSSNTDTGKVTGTLETKYKWCEYGLTFTEKWNTDNTLGTEIAIEDQICQGLKLTFDTTFSPNTGKKSGKIKSSYKRECINLGCDVDFDFAGPAIHGSAVFGYEGWLAGYQMTFDSAKSKLTRNNFAVGYRTGDFQLHTNVNDGTEFGGSIYQKVCEDLDTSVNLAWTSGTNCTRFGIAAKYQLDPTASISAKVNNSSLIGVGYTQTLRPGVKLTLSALVDGKSINAGGHKVGLALELEA | failed |
